Here are results for 1 protein from PMC8092134, “Cryptic β-Lactamase Evolution Is Driven by Low β-Lactam Concentrations” (mSphere, 2021).

The data set concerns the molecule itself. Briefly: crystal structure; hanging drop, 5 mg/ml enzyme, 0.1 M Tris pH 9.0, 28 to 30% PEG mono ethylene ether 500, 4°C; soaked with ceftazidime; space group P2(1)2(1)2(1), four chains in the asymmetric unit.

B1: OXA-48 variant L67F (enzyme)
chain: KEWQENKSWNAHFTEHKSQGVVVLWNENKQQGFTNNLKRANQAFFPASTFKIPNSLIALDLGVVKDEHQVFKWDGQTRDIATWNRDHNLITAMKYSVVPVYQEFARQIGEARMSKMLHAFDYGNEDISGNVDSFWLDGGIRISATEQISFLRKLYHNKLHVSERSQRIVKQAMLTEANGDYIIRAKTGYSTRIEPKIGWWVGWVELDDNVWFFAMNMDMPTSDGLGLRQAITKEVLKQEKIIP
modifications: carboxylated lysine at K73
notes: point mutation L67F made by site-directed mutagenesis; Crystals were soaked with ceftazidime; chains C and D carry a hydrolysed ceftazidime molecule; also called OXA-48 L67F; source: E. coli BL21 AI (pDEST17), purified
Take B1: the “stoichiometry N” value is 2.

The stoichiometry N is the number of molecules, sites or subunits per partner or assembly.
